This passage reports stoichiometry N results from article PMC9062432.

The assay addresses AphC, extradiol dioxygenase from Rhodococcus jostii RHA1 (Rhodococcus jostii RHA1). Briefly: crystal structure.

In the case of “AphC, extradiol dioxygenase from Rhodococcus jostii RHA1 (enzyme)”, the stoichiometry N (commonly a count of units in the complex or per binding partner) came out at 4.
